# Measurements taken from paper PMC3159028 (Journal of molecular biology, 2011).
# Like-named read-outs stand apart in the source and are kept apart here.
# B1: hNudC^1–141, N-terminal fragment of human NudC (dimerization domain) (domain or fragment)
# chain: not shown
# B2: human NudC-like protein (NudCL), full length (natural protein, UniProt Q8IVD9 1-361, looked up)
# chain: METGAAELYDQALLGILQHVGNVQDFLRVLFGFLYRKTDFYRLLRHPSDRMGFPPGAAQALVLQVFKTFDHMARQDDEKRRQELEEKIRRKEEEEAKTVSAAAAEKEPVPVPVQEIEIDSTTELDGHQEVEKVQPPGPVKEMAHGSQEAEAPGAVAGAAEVPREPPILPRIQEQFQKNPDSYNGAVRENYTWSQDYTDLEVRVPVPKHVVKGKQVSVALSSSSIRVAMLEENGERVLMEGKLTHKINTESSLWSLEPGKCVLVNLSKVGEYWWNAILEGEEPIDIDKINKERSMATVDEEEQAVLDRLTFDYHQKLQGKPQSHELKVHEMLKKGWDAEGSPFRGQRFDPAMFNISPGAVQF
# B3: human NudC, full length (NudC^1–331) (natural protein)
# chain: not shown
# B4: mouse NudC-like 2 protein (NudCL2), full length (natural protein, UniProt Q9CQ48 1-157, looked up)
# chain: MSAPFEERSGVVPCGTPWGQWYQTLEEVFIEVQVPPGTRAQDIQCGLQSRHVALAVGGREILKGKLFDSTIADEGTWTLEDRKMVRIVLTKTKRDAANCWTSLLESEYAADPWVQDQMQRKLTLERFQKENPGFDFSGAEISGNYTKGGPDFSNLEK
# Legend:
# SEC [1] = target: the molecule itself; test: SEC
# SEC [2] = target: the molecule itself; test: SEC; remark: listed apart in the source
Protein,stoichiometry N (SEC [1]),stoichiometry N (SEC [2])
B1,2,
B2,,2
B3,,2
B4,,2
